Assay results reported in patent publication US20140165223A1, “TNF SUPERFAMILY TRIMERIZATION INHIBITORS” (B.S.R.C. "Alexander Fleming", priority 2011, published 2014).

T1: RANKL (Mus musculus, UniProt O35235, G278R)
T1 construct: expressed in transfected cells; host or cells: HEK 293FT
T1 sequence (O35235 1-316 G278R): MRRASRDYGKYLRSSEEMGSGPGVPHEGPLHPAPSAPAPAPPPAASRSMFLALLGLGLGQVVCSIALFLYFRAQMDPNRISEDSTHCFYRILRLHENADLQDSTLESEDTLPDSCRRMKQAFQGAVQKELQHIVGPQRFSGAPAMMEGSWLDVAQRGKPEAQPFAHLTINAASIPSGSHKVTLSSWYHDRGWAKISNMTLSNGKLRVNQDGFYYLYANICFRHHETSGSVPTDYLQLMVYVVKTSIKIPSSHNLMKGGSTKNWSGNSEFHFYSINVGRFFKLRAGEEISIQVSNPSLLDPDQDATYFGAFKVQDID

T2: RANKL (Mus musculus, UniProt O35235)
T2 construct: expressed in transfected cells; host or cells: HEK 293FT
T2 sequence (O35235 1-316): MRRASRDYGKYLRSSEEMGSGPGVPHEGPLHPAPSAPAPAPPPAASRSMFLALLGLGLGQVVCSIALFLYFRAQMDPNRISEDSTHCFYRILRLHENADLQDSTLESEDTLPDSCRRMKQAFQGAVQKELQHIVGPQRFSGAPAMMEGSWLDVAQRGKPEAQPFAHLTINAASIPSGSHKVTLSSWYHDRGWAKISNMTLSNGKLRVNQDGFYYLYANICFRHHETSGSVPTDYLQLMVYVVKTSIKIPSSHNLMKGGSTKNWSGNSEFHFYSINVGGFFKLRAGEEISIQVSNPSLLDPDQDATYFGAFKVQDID

T3: GST-RANKL (Mus musculus, UniProt O35235)
T3 construct: a cDNA encoding the core ectodomain of murine RANKL residues 158-316, with or without the G278R substitution; made in house; host or cells: Escherichia coli BL21
T3 sequence (O35235 158-316): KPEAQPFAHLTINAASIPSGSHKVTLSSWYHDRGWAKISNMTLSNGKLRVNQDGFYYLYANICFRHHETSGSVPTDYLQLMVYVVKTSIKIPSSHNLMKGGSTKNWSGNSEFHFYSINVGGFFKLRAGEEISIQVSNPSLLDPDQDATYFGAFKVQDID


Columns and labels:
RANKL [1] = molecular target: T1, RANKL; test: Trimer formation in transfected HEK 293FT cells (native gel, Western blot); assay type: cell-based; settings: HEK 293FT, RANKL^G278R-Myc
Procedure: (§1) Similar to the analysis of recombinant RANKL proteins, trimer formation was detected only in WT RANKL-Myc but not in RANKL^G278R-Myc.
(§2) HEK 293FT cells were transfected with 1 μg plasmid DNA using TransIt-293 transfection reagent (Mirus, Madison, Wis.). After 48 hours, transfected cells were harvested in PBS and the half quantity was diluted in equal volume of 2× Laemmli sample buffer, and analyzed in 12% acrylamide denatured gels. The remaining cells were lysed by sonication, centrifuged, and analyzed in 8% native acrylamide gels.

RANKL [2] = molecular target: T2, RANKL; test: as above; assay type: cell-based; settings: co-transfection with WT RANKL-FLAG
Procedure: as §1, §2

RANK-Fc = molecular target: T4, RANK-Fc (Mus musculus, UniProt O35305); test: Binding assay of GST-RANKL^G278R to RANK; settings: immobilized protein, serial dilutions of murine RANK-Fc
T4 construct: purchased R&D systems
T4 sequence (O35305 with tags, fused parts or gaps limits assumed): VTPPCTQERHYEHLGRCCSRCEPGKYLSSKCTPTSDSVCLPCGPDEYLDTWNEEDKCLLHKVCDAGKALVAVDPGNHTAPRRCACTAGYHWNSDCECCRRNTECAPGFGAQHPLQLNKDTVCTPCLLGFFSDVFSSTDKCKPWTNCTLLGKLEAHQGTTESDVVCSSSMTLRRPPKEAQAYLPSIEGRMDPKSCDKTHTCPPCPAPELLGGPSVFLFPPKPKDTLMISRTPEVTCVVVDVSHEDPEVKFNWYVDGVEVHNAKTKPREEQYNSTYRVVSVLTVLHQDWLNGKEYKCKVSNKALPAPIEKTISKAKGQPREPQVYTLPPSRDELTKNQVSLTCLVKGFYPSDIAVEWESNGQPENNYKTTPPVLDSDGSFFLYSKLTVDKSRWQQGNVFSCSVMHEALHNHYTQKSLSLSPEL
Procedure: RANK-Fc interacted with GST-RANKL in a dose-dependent manner, but not with GST-RANKL^G278R or GST.
Nunc plates were coated with recombinant WT GST-RANKL, GST-RANKL^G278R or GST at 3 μg/ml and after blocking with 1% BSA, were incubated with increasing amount of recombinant mouse RANK-Fc (R&D systems). RANK binding was detected with a phycoerythrin (PE) conjugated goat anti-human IgG (Fc) (SouthernBiotech, Birmingham, USA) that was measured (539-573 nm) with the fluorescent plate reader TECAN infinite M200.

GST-RANKL [3] = test: Ex vivo RANKL-induced osteoclast formation (BM cells, M-CSF + GST-RANKL, TRAP staining); assay type: cell-based, mouse; settings: ratio WT GST-RANKL:GST-RANKL^G278R 0:1
Procedure: (§3) Instead, WT GST-RANKL (ratio 1:0) induced formation of TRAP+ giant osteoclasts (FIGS. 5A-5C). […] Incubation of WT GST-RANKL with GST at similar concentrations (12.5-100 ng/ml), didn't affect the formation of osteoclasts.
(§4) A novel small molecule inhibitor of TNF trimerization, named SPD304, has been recently reported^[35] to interact with glycine 122 (G122) that corresponds to G278 in RANKL.
(§5) BM cells were collected after flushing out of femurs and tibiae, subjected to gradient purification using FICOLL-PAQUE™ (GE Healthcare), plated in 24-well plates at a density of 5×10^5 cells per well and cultured in αMEM medium (GIBCO) containing 10% fetal bovine serum supplemented with 40 ng/ml RANKL (R&D Systems) and 25 ng/ml M-CSF (R&D Systems) for 5 days. Similarly, splenocytes were collected, plated in 24-well plates at a density of 10^6 cells per well and cultured in the presence of recombinant RANKL and M-CSF for 6 days. GST-RANKL^G278R was pre-incubated with WT GST-RANKL at room temperature for 20 min, prior to the stimulation of the BM cell cultures, in order to enable exchange of the RANKL variants and heterotrimer formation. Small molecule SPD304 (Sigma-Aldrich) was pre-incubated with 80 ng/ml GST-RANKL at various concentrations from 0.25 to 2 μM in αMEM medium for 1 hour at room temperature and then added to culture. Osteoclasts were stained for TRAP activity.

GST-RANKL [4] = molecular target: T3, GST-RANKL; test: as above; assay type: cell-based
Procedure: as §3, §4, §5

Molecule | own trimer formation in eukaryotic cells (RANKL [1]) | effect on WT RANKL trimerization (RANKL [2]) | binding affinity for RANK-Fc (RANK-Fc) | induction of TRAP+ cells by the variant alone (GST-RANKL [3]) | formation of TRAP+ giant multinucleated cells (GST-RANKL [4]; ratio WT GST-RANKL:GST-RANKL^G278R 1:1) | formation of multinucleated TRAP+ osteoclasts (GST-RANKL [4]; ratio WT GST-RANKL:GST-RANKL^G278R 1:2 (50 ng/ml GST-RANKL, 100 ng/ml variant)) | formation of TRAP+ giant multinucleated cells (GST-RANKL [4]; ratio WT GST-RANKL:GST-RANKL^G278R 2:1) | formation of giant osteoclast-like cells (GST-RANKL [4]; ratio WT GST-RANKL:GST-RANKL^G278R 4:1 or higher)
RANKL^G278R: murine RANKL with glycine to arginine substitution at residue 278; soluble or full-length Myc-tagged (protein, UniProt O35235 139-316, looked up, variant G278R, Myc tag, murine RANKL with glycine to arginine substitution at residue 278; soluble or full-length Myc-tagged) Tumor necrosis factor ligand …: FSGAPAMMEGSWLDVAQRGKPEAQPFAHLTINAASIPSGSHKVTLSSWYHDRGWAKISNMTLSNGKLRVNQDGFYYLYANICFRHHETSGSVPTDYLQLMVYVVKTSIKIPSSHNLMKGGSTKNWSGNSEFHFYSINVGRFFKLRAGEEISIQVSNPSLLDPDQDATYFGAFKVQDID | fails to form trimers | inhibits WT RANKL trimerization | – | – | – | – | – | –
GST-RANKL^G278R: murine RANKL ectodomain residues 158-316 with G278R substitution, fused to GST (protein) KPEAQPFAHLTINAASIPSGSHKVTLSSWYHDRGWAKISNMTLSNGKLRVNQDGFYYLYANICFRHHETSGSVPTDYLQLMVYVVKTSIKIPSSHNLMKGGSTKNWSGNSEFHFYSINVGRFFKLRAGEEISIQVSNPSLLDPDQDATYFGAFKVQDID | – | – | completely abolished | failed to induce formation of TRAP+ cells | completely impaired the formation of TRAP+ giant multinucleated cells | Complete inhibition in the formation of multinucleated TRAP+ osteoclasts | a small number of TRAP+ giant multinucleated cells was formed | Formation of giant osteoclast-like-cells appeared
